Paper PMC4620370 (Journal of Gynecologic Oncology, 2015)
No end group written: not given here. *: point of attachment. FITC = O=C1OC2(c3ccc(O)cc3Oc3cc(O)ccc32)c2ccc(NC(=S)*)cc21; Ahx = NCCCCCC(=O)O

Experiments:
[1] = tested on: VEGFR-3 in ovarian carcinoma tissue sections; parameters: species or system human; conditions: FITC-tagged peptide, overnight at 4℃, confocal laser scanning fluorescence microscopy; Fig. 5B, D
[2] = tested on: SKOV3 ovarian cancer cells (tumor-bearing mice); assay: In vivo targeting of 99mTc-labeled peptide to ovarian tumors; parameters: species or system Balb/c-nu mice; conditions: ~3,700 kBq ^99mTc/100 µg peptide, n=6
[3] = cited from earlier work
rhVEGFR-3 = assay: Phage screening; assay type: binding, human; conditions: negative peptide used as immunofluorescence control

With “FITC-(aminohexanoic, AHX)-WHWLPNLRHYAS [FITC-tagged peptide III]” the “interaction with VEGFR-3 (immunofluorescence)” value [1] was “could interact with VEGFR-3”.

In the case of “NHS-MAG3-SHSWHWLPNLRHYAS [^99mTc-labeled peptide]”, the “time of peak radioactivity from ovarian tumor cells after tail vein injection” value [2] was 3 h.

In the case of “bevacizumab: a monoclonal antibody specific for VEGF”, the “serious adverse events associated” value [3] is listed as “venous thromboembolism, hypertension, proteinuria, arterial thrombosis, bleeding, and gastrointestinal perforation” and the “risk of fatal adverse events” value ([3]; meta-analysis that included 34 trials) is listed as “increased”.

With “{FITC-Ahx}-WHNSLKANYTWG [FITC-labeled negative peptide]” the “binding in the phage screening procedure” value (rhVEGFR-3) was “negative binding”.
